Results reported in PMC8602292, “Acyl carrier protein promotes MukBEF action in Escherichia coli chromosome organization-segregation” (Nature Communications, 2021).
One block for each molecule: values may come before it.

B1: MukB (wild type, MukB-His) (natural protein, Escherichia coli, UniProt P22523 1-1486, looked up)
chain: MIERGKFRSLTLINWNGFFARTFDLDELVTTLSGGNGAGKSTTMAAFVTALIPDLTLLHFRNTTEAGATSGSRDKGLHGKLKAGVCYSMLDTINSRHQRVVVGVRLQQVAGRDRKVDIKPFAIQGLPMSVQPTQLVTETLNERQARVLPLNELKDKLEAMEGVQFKQFNSITDYHSLMFDLGIIARRLRSASDRSKFYRLIEASLYGGISSAITRSLRDYLLPENSGVRKAFQDMEAALRENRMTLEAIRVTQSDRDLFKHLISEATNYVAADYMRHANERRVHLDKALEFRRELHTSRQQLAAEQYKHVDMARELAEHNGAEGDLEADYQAASDHLNLVQTALRQQEKIERYEADLDELQIRLEEQNEVVAEAIERQQENEARAEAAELEVDELKSQLADYQQALDVQQTRAIQYNQAIAALNRAKELCHLPDLTADCAAEWLETFQAKELEATEKMLSLEQKMSMAQTAHSQFEQAYQLVVAINGPLARNEAWDVARELLREGVDQRHLAEQVQPLRMRLSELEQRLREQQEAERLLADFCKRQGKNFDIDELEALHQELEARIASLSDSVSNAREERMALRQEQEQLQSRIQSLMQRAPVWLAAQNSLNQLSEQCGEEFTSSQDVTEYLQQLLEREREAIVERDEVGARKNAVDEEIERLSQPGGSEDQRLNALAERFGGVLLSEIYDDVSLEDAPYFSALYGPSRHAIVVPDLSQVTEHLEGLTDCPEDLYLIEGDPQSFDDSVFSVDELEKAVVVKIADRQWRYSRFPEVPLFGRAARESRIESLHAEREVLSERFATLSFDVQKTQRLHQAFSRFIGSHLAVAFESDPEAEIRQLNSRRVELERALSNHENDNQQQRIQFEQAKEGVTALNRILPRLNLLADDSLADRVDEIRERLDEAQEAARFVQQFGNQLAKLEPIVSVLQSDPEQFEQLKEDYAYSQQMQRDARQQAFALTEVVQRRAHFSYSDSAEMLSGNSDLNEKLRERLEQAEAERTRAREALRGHAAQLSQYNQVLASLKSSYDTKKELLNDLQRELQDIGVRADSGAEERARIRRDELHAQLSNNRSRRNQLEKALTFCEAEMDNLTRKLRKLERDYFEMREQVVTAKAGWCAVMRMVKDNGVERRLHRRELAYLSADDLRSMSDKALGALRLAVADNEHLRDVLRMSEDPKRPERKIQFFVAVYQHLRERIRQDIIRTDDPVEAIEQMEIELSRLTEELTSREQKLAISSRSVANIIRKTIQREQNRIRMLNQGLQNVSFGQVNSVRLNVNVRETHAMLLDVLSEQHEQHQDLFNSNRLTFSEALAKLYQRLNPQIDMGQRTPQTIGEELLDYRNYLEMEVEVNRGSDGWLRAESGALSTGEAIGTGMSILVMVVQSWEDESRRLRGKDISPCRLLFLDEAARLDARSIATLFELCERLQMQLIIAAPENISPEKGTTYKLVRKVFQNTEHVHVVGLRGFAPQLPETLPGTDEAPSQAS
notes: MukB, the SMC protein of Escherichia coli MukBEF; wild type; The end of the tag is read from the printed name 'MukB-His'; The same construct was used with co-purified AcpP or depleted of AcpP by an extended salt gradient on heparin; also called WT MukB; AcpP-depleted MukB; source: E. coli C3013I (NEB), pET vector, purified (TALON, HiTrap Heparin, Superdex 200); not shown: His tag, C-terminal, kept

Legend:
[1] = molecular target: B1
[2] = molecular target: T1, MukB^KRK (K1114E, R1122E and K1125E) (Escherichia coli, UniProt P22523 1-1486, K1114E | R1122E | K1125E)
T1 construct: E. coli MukB, triple charge-reversed mutant; source: E. coli FL01 (mukB 3xFLAG C3013I), purified (TALON, HiTrap Heparin, Superdex 200); not shown: His tag, C-terminal, kept
T1 sequence (looked up): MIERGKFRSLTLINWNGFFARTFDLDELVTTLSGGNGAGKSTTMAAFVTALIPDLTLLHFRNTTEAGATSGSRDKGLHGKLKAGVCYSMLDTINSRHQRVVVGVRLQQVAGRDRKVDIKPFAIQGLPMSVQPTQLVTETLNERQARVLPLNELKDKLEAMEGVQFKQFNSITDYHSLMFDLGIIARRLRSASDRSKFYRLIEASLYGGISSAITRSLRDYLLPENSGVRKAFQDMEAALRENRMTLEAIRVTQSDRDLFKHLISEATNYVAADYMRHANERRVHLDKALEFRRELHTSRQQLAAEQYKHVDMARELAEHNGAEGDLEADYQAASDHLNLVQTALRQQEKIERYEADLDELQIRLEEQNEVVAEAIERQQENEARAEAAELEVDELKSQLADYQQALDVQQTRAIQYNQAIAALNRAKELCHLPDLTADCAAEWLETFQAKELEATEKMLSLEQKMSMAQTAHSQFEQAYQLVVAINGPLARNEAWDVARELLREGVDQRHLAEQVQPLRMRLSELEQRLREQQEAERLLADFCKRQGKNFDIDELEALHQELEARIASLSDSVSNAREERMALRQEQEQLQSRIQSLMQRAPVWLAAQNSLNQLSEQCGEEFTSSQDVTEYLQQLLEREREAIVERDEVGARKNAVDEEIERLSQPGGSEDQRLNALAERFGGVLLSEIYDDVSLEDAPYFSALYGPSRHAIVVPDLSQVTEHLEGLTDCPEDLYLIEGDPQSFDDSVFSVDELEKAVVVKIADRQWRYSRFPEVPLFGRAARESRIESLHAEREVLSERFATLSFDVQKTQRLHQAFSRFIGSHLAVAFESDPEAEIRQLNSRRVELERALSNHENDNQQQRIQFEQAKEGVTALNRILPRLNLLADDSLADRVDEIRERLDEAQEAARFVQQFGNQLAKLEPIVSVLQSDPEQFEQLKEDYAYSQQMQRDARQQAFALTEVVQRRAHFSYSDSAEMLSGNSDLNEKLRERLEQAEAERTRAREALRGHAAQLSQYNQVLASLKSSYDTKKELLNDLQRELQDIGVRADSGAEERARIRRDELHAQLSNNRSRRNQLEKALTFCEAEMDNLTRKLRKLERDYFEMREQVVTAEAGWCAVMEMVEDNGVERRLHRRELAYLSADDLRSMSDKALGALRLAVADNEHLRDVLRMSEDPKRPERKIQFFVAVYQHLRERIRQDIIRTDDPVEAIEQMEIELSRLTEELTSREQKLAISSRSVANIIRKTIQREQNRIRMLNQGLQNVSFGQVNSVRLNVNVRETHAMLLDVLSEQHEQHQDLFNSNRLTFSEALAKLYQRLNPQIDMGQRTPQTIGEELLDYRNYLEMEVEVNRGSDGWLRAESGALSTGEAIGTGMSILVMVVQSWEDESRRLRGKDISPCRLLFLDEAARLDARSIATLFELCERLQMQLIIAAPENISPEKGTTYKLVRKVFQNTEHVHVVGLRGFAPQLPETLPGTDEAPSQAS

[3] = molecular target: MukB^KK (K1114E and K1125E) (Escherichia coli) (UniProt P22523)
[4] = molecular target: MukB^N (MukB Neck) (Escherichia coli); assay: native MS; MukB^N or MukB^HN with co-purified AcpP; 200 mM ammonium acetate pH 8.0
[5] = molecular target: MukB (wild type, MukB-His) (Escherichia coli) (UniProt P22523)
[6] = molecular target: MukB^HN (MukB Head-Neck) (Escherichia coli); assay: native MS; MukB^N or MukB^HN with co-purified AcpP; 200 mM ammonium acetate pH 8.0
[7] = molecular target: the molecule itself; assay: native MS; mixtures of MukB, MukE, MukF and AcpP at various concentrations of MukB; 200 mM ammonium acetate pH 8.0

Molecule: Acyl Carrier Protein (AcpP), recombinant (from UniProt P0A6A8 1-78) (natural protein)
ATPase activity of AcpP-depleted MukB with MukF, without and with added recombinant AcpP (ATP molecules/MukB2/min) [1]: 29 | ATPase activity with MukEF against increasing AcpP (up to 100 times excess, 50 μM) (ATP molecules/MukB2/min) [2]: 7.6 | ATPase activity with MukEF against increasing AcpP (up to 50 μM) (% of WT ATPase activity) [3]: 60

Molecule: B1
binding result [7]: binds

The next lines start with the values.

stoichiometry N [4]: 2
Molecule: MukB^N (MukB Neck) (domain or fragment)

ATPase activity of MukBF co-purified with AcpP (ATP molecules/MukB2/min) [5]: 27.2 | stoichiometry N [6]: 1 | stoichiometry N [4]: 1
Molecule: Acyl Carrier Protein (AcpP), native, co-purified from the E. coli host (from UniProt P0A6A8 1-78) (natural protein)
